Literature values, collected in publication PMC8242001.

Biological target: eIF4E (Saccharomyces cerevisiae) (UniProt P07260)
Assay: ITC

UniProt P07260, sequence (P07260 whole entry): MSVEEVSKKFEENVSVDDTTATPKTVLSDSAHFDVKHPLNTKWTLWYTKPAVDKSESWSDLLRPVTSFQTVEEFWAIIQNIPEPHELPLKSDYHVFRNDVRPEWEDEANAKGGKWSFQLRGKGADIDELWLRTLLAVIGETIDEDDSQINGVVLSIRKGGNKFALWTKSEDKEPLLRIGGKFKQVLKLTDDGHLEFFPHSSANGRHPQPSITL

Caf20 (from UniProt P12962)
Kd: 20 nM
